Measurements: patent US20140087995A1 (published 2014)
Numbered stars: 1 amine (or outer) side, 2 acyl side, 3 side chain; on linkers, the order of the positions; unused ones are H or OH. Bridge positions count the residues as written; N and C are the ends. Side chains are listed from the residue outwards. Ends that are not written are not given here. * marks the point of attachment. C20 diacid = O=C(O)CCCCCCCCCCCCCCCCCCC(=O)*; γGlu = O=C(O)[C@H](CCC(=O)[*:2])N[*:1]

T1: human calcitonin receptor (human, UniProt P30988 25-474)
T1 construct: whole, on cells; Used as membranes prepared from the transfected cells; also called hCTR; hCT
T1 sequence (looked up): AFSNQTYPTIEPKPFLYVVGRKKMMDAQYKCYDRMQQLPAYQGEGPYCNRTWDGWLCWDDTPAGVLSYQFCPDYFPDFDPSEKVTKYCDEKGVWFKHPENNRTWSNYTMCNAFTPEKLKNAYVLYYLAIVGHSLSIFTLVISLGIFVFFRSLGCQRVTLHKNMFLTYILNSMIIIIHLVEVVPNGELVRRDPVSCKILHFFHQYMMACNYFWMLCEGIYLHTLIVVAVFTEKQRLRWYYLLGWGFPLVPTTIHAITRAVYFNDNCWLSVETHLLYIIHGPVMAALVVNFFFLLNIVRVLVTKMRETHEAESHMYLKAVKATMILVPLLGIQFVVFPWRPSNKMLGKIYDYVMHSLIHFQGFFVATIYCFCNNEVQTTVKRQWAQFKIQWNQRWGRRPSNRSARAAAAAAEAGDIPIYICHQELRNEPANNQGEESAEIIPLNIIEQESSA

T2: rat calcitonin receptor (rat, UniProt P32214 25-516)
T2 construct: whole, on cells; Used as membranes prepared from the transfected cells; also called rCTR; rCT
T2 sequence (looked up): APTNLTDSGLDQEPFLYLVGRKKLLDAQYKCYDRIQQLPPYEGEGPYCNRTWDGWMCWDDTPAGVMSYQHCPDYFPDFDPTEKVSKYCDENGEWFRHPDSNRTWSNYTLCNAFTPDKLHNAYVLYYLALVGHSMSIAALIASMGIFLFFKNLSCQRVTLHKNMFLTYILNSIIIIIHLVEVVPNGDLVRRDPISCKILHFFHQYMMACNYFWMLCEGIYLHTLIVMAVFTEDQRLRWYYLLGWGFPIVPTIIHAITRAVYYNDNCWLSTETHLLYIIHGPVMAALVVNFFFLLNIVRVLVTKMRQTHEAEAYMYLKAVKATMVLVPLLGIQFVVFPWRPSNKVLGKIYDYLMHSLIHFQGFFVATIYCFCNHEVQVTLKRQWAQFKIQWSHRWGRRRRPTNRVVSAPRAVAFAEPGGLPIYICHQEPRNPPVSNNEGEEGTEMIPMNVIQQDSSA

B1: N^ε1-[(4S)-4-carboxy-4-(19-carboxynonadecanoylamino)butanoyl]-[Arg17,Pro21,Pro27,His34]-h-amylin (peptide)
peptide: K([γGlu-C20 diacid])CNTATCATQRLANFLRHSSPNFGAIPSSTNVGHNTY-NH2
modifications: disulfide 2-7; N-terminus assumed
SMILES: CC[C@H](C)[C@H](NC(=O)[C@H](C)NC(=O)CNC(=O)[C@H](Cc1ccccc1)NC(=O)[C@H](CC(N)=O)NC(=O)[C@@H]1CCCN1C(=O)[C@H](CO)NC(=O)[C@H](CO)NC(=O)[C@H](Cc1c[nH]cn1)NC(=O)[C@H](CCCNC(=N)N)NC(=O)[C@H](CC(C)C)NC(=O)[C@H](Cc1ccccc1)NC(=O)[C@H](CC(N)=O)NC(=O)[C@H](C)NC(=O)[C@H](CC(C)C)NC(=O)[C@H](CCCNC(=N)N)NC(=O)[C@H](CCC(N)=O)NC(=O)[C@@H](NC(=O)[C@H](C)NC(=O)[C@@H]1CSSC[C@H](NC(=O)[C@@H](N)CCCCNC(=O)CC[C@H](NC(=O)CCCCCCCCCCCCCCCCCCC(=O)O)C(=O)O)C(=O)N[C@@H](CC(N)=O)C(=O)N[C@@H]([C@@H](C)O)C(=O)N[C@@H](C)C(=O)N[C@@H]([C@@H](C)O)C(=O)N1)[C@@H](C)O)C(=O)N1CCC[C@H]1C(=O)N[C@@H](CO)C(=O)N[C@@H](CO)C(=O)N[C@H](C(=O)N[C@@H](CC(N)=O)C(=O)N[C@H](C(=O)NCC(=O)N[C@@H](Cc1c[nH]cn1)C(=O)N[C@@H](CC(N)=O)C(=O)N[C@H](C(=O)N[C@@H](Cc1ccc(O)cc1)C(N)=O)[C@@H](C)O)C(C)C)[C@@H](C)O
notes: Analogue of human amylin; disulfide and C-terminal amide as told for h-amylin; also called compound 77
B2: N^ε1-[(4S)-4-carboxy-4-(19-carboxynonadecanoylamino)butanoyl]-[His14,Arg17,Pro21,Pro27,His34]-h-amylin (peptide)
peptide: K([γGlu-C20 diacid])CNTATCATQRLAHFLRHSSPNFGAIPSSTNVGHNTY-NH2
modifications: disulfide 2-7; N-terminus assumed
SMILES: CC[C@H](C)[C@H](NC(=O)[C@H](C)NC(=O)CNC(=O)[C@H](Cc1ccccc1)NC(=O)[C@H](CC(N)=O)NC(=O)[C@@H]1CCCN1C(=O)[C@H](CO)NC(=O)[C@H](CO)NC(=O)[C@H](Cc1c[nH]cn1)NC(=O)[C@H](CCCNC(=N)N)NC(=O)[C@H](CC(C)C)NC(=O)[C@H](Cc1ccccc1)NC(=O)[C@H](Cc1c[nH]cn1)NC(=O)[C@H](C)NC(=O)[C@H](CC(C)C)NC(=O)[C@H](CCCNC(=N)N)NC(=O)[C@H](CCC(N)=O)NC(=O)[C@@H](NC(=O)[C@H](C)NC(=O)[C@@H]1CSSC[C@H](NC(=O)[C@@H](N)CCCCNC(=O)CC[C@H](NC(=O)CCCCCCCCCCCCCCCCCCC(=O)O)C(=O)O)C(=O)N[C@@H](CC(N)=O)C(=O)N[C@@H]([C@@H](C)O)C(=O)N[C@@H](C)C(=O)N[C@@H]([C@@H](C)O)C(=O)N1)[C@@H](C)O)C(=O)N1CCC[C@H]1C(=O)N[C@@H](CO)C(=O)N[C@@H](CO)C(=O)N[C@H](C(=O)N[C@@H](CC(N)=O)C(=O)N[C@H](C(=O)NCC(=O)N[C@@H](Cc1c[nH]cn1)C(=O)N[C@@H](CC(N)=O)C(=O)N[C@H](C(=O)N[C@@H](Cc1ccc(O)cc1)C(N)=O)[C@@H](C)O)C(C)C)[C@@H](C)O
notes: Analogue of human amylin; disulfide and C-terminal amide as told for h-amylin; also called compound 81
B3: N^ε1-[(4S)-4-carboxy-4-[[(4S)-4-carboxy-4-(19-carboxynonadecanoylamino)butanoyl]amino]butanoyl]-[Arg17,Pro21,Pro27,His34]-h-amylin (peptide)
peptide: K([γGlu-γGlu-C20 diacid])CNTATCATQRLANFLRHSSPNFGAIPSSTNVGHNTY-NH2
modifications: disulfide 2-7; N-terminus assumed
SMILES: CC[C@H](C)[C@H](NC(=O)[C@H](C)NC(=O)CNC(=O)[C@H](Cc1ccccc1)NC(=O)[C@H](CC(N)=O)NC(=O)[C@@H]1CCCN1C(=O)[C@H](CO)NC(=O)[C@H](CO)NC(=O)[C@H](Cc1c[nH]cn1)NC(=O)[C@H](CCCNC(=N)N)NC(=O)[C@H](CC(C)C)NC(=O)[C@H](Cc1ccccc1)NC(=O)[C@H](CC(N)=O)NC(=O)[C@H](C)NC(=O)[C@H](CC(C)C)NC(=O)[C@H](CCCNC(=N)N)NC(=O)[C@H](CCC(N)=O)NC(=O)[C@@H](NC(=O)[C@H](C)NC(=O)[C@@H]1CSSC[C@H](NC(=O)[C@@H](N)CCCCNC(=O)CC[C@H](NC(=O)CC[C@H](NC(=O)CCCCCCCCCCCCCCCCCCC(=O)O)C(=O)O)C(=O)O)C(=O)N[C@@H](CC(N)=O)C(=O)N[C@@H]([C@@H](C)O)C(=O)N[C@@H](C)C(=O)N[C@@H]([C@@H](C)O)C(=O)N1)[C@@H](C)O)C(=O)N1CCC[C@H]1C(=O)N[C@@H](CO)C(=O)N[C@@H](CO)C(=O)N[C@H](C(=O)N[C@@H](CC(N)=O)C(=O)N[C@H](C(=O)NCC(=O)N[C@@H](Cc1c[nH]cn1)C(=O)N[C@@H](CC(N)=O)C(=O)N[C@H](C(=O)N[C@@H](Cc1ccc(O)cc1)C(N)=O)[C@@H](C)O)C(C)C)[C@@H](C)O
notes: Analogue of human amylin; disulfide and C-terminal amide as told for h-amylin; also called compound 86
B4: N^ε1-[(4S)-4-carboxy-4-(19-carboxynonadecanoylamino)butanoyl]-[His14,Arg17,Pro21,Pro27,Arg34]-h-amylin (peptide)
peptide: K([γGlu-C20 diacid])CNTATCATQRLAHFLRHSSPNFGAIPSSTNVGRNTY-NH2
modifications: disulfide 2-7; N-terminus assumed
SMILES: CC[C@H](C)[C@H](NC(=O)[C@H](C)NC(=O)CNC(=O)[C@H](Cc1ccccc1)NC(=O)[C@H](CC(N)=O)NC(=O)[C@@H]1CCCN1C(=O)[C@H](CO)NC(=O)[C@H](CO)NC(=O)[C@H](Cc1c[nH]cn1)NC(=O)[C@H](CCCNC(=N)N)NC(=O)[C@H](CC(C)C)NC(=O)[C@H](Cc1ccccc1)NC(=O)[C@H](Cc1c[nH]cn1)NC(=O)[C@H](C)NC(=O)[C@H](CC(C)C)NC(=O)[C@H](CCCNC(=N)N)NC(=O)[C@H](CCC(N)=O)NC(=O)[C@@H](NC(=O)[C@H](C)NC(=O)[C@@H]1CSSC[C@H](NC(=O)[C@@H](N)CCCCNC(=O)CC[C@H](NC(=O)CCCCCCCCCCCCCCCCCCC(=O)O)C(=O)O)C(=O)N[C@@H](CC(N)=O)C(=O)N[C@@H]([C@@H](C)O)C(=O)N[C@@H](C)C(=O)N[C@@H]([C@@H](C)O)C(=O)N1)[C@@H](C)O)C(=O)N1CCC[C@H]1C(=O)N[C@@H](CO)C(=O)N[C@@H](CO)C(=O)N[C@H](C(=O)N[C@@H](CC(N)=O)C(=O)N[C@H](C(=O)NCC(=O)N[C@@H](CCCNC(=N)N)C(=O)N[C@@H](CC(N)=O)C(=O)N[C@H](C(=O)N[C@@H](Cc1ccc(O)cc1)C(N)=O)[C@@H](C)O)C(C)C)[C@@H](C)O
notes: Analogue of human amylin; disulfide and C-terminal amide as told for h-amylin; also called compound 85
B5: N^ε1-[(4S)-4-carboxy-4-(19-carboxynonadecanoylamino)butanoyl]-[His14,Arg17,Pro21,Pro27,His35]-h-amylin (peptide)
peptide: K([γGlu-C20 diacid])CNTATCATQRLAHFLRHSSPNFGAIPSSTNVGSHTY-NH2
modifications: disulfide 2-7; N-terminus assumed
SMILES: CC[C@H](C)[C@H](NC(=O)[C@H](C)NC(=O)CNC(=O)[C@H](Cc1ccccc1)NC(=O)[C@H](CC(N)=O)NC(=O)[C@@H]1CCCN1C(=O)[C@H](CO)NC(=O)[C@H](CO)NC(=O)[C@H](Cc1c[nH]cn1)NC(=O)[C@H](CCCNC(=N)N)NC(=O)[C@H](CC(C)C)NC(=O)[C@H](Cc1ccccc1)NC(=O)[C@H](Cc1c[nH]cn1)NC(=O)[C@H](C)NC(=O)[C@H](CC(C)C)NC(=O)[C@H](CCCNC(=N)N)NC(=O)[C@H](CCC(N)=O)NC(=O)[C@@H](NC(=O)[C@H](C)NC(=O)[C@@H]1CSSC[C@H](NC(=O)[C@@H](N)CCCCNC(=O)CC[C@H](NC(=O)CCCCCCCCCCCCCCCCCCC(=O)O)C(=O)O)C(=O)N[C@@H](CC(N)=O)C(=O)N[C@@H]([C@@H](C)O)C(=O)N[C@@H](C)C(=O)N[C@@H]([C@@H](C)O)C(=O)N1)[C@@H](C)O)C(=O)N1CCC[C@H]1C(=O)N[C@@H](CO)C(=O)N[C@@H](CO)C(=O)N[C@H](C(=O)N[C@@H](CC(N)=O)C(=O)N[C@H](C(=O)NCC(=O)N[C@@H](CO)C(=O)N[C@@H](Cc1c[nH]cn1)C(=O)N[C@H](C(=O)N[C@@H](Cc1ccc(O)cc1)C(N)=O)[C@@H](C)O)C(C)C)[C@@H](C)O
notes: Analogue of human amylin; disulfide and C-terminal amide as told for h-amylin; also called compound 66

target: T1, human calcitonin receptor; assay: ratio of binding IC50 at human calcitonin receptor to IC50 at human amylin receptor (reference)
Outline: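 Membranes (35 ng/μL final) + SPA beads, 50 mM Hepes pH 7.4 buffer with 1 mM CaCl2, 5 mM MgCl₂, 0.1% OA, 0.02% Tween20; 120 min, 25° C, shaking; centrifuged, counted; IC₅₀ by one-site binding competition.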

B1 was tested. Which “Ratio hCT/hAmylin binding” value did it give?
Its value is 118.

How did the “Ratio hCT/hAmylin binding” value turn out when B2 was run?
The value was 87.2.

For B3, which “Ratio hCT/hAmylin binding” value is on record?
Its value is 159.

Which “Ratio hCT/hAmylin binding” value does the source give for B4 here?
Its value is 91.8.

How did the “Ratio hCT/hAmylin binding” value turn out when B5 was run?
Its value is 45.5.

target: T2, rat calcitonin receptor; assay: ratio of binding IC50 at rat calcitonin receptor to IC50 at rat amylin receptor (reference)

B1 was tested. Which “Ratio rCT/rAmylin binding” value did it give?
Its value is 137.

B2 was tested. Which “Ratio rCT/rAmylin binding” value did it give?
The value was 42.9.

B3 was tested. Which “Ratio rCT/rAmylin binding” value did it give?
The value was 126.

For B4, which “Ratio rCT/rAmylin binding” value is on record?
Its value is 46.5.

With B5 as the binder, how does the “Ratio rCT/rAmylin binding” value read?
The value was 35.8.

target: T2, rat calcitonin receptor; assay: SPA competition with 125I-calcitonin, membranes with rat calcitonin receptor (Assay VIII)

With B1 as the binder, how does the IC50 read?
The IC50 was 205 nM.

Which IC50 does the source give for B2 here?
The IC50 was 61.1 nM.

Which IC50 does the source give for B3 here?
The IC50 was 352 nM.

B4 was tested. Which IC50 did it give?
Its IC50 is 146 nM.

For B5, which IC50 is on record?
Its IC50 is 20.8 nM.
